Experimental data taken from doi:10.1101/2022.05.31.494111.
Where two headings read alike, the source gives them in different places.

How the values were obtained:
[1] = target: Chlamydomonas reinhardtii RabL2, wild type (Chlamydomonas reinhardtii); experiment: ITC
[2] = target: Chlamydomonas reinhardtii RabL2, wild type (Chlamydomonas reinhardtii); experiment: ITC; remark: listed apart in the source
[3] = target: minimal CrIFT81_(460-533)/CrIFT74_(460-532) complex (Chlamydomonas reinhardtii) (UniProt Q68RJ5)
minimal CrIFT81_(460-533)/CrIFT74_(460-532) complex (Chlamydomonas reinhardtii), sequence (Q68RJ5 460-533, chain 1 of 2): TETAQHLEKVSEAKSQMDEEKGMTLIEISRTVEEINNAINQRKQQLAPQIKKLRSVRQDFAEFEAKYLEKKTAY
minimal CrIFT81_(460-533)/CrIFT74_(460-532) complex (Chlamydomonas reinhardtii), sequence (Q6RCE1 460-532, chain 2 of 2, further chain): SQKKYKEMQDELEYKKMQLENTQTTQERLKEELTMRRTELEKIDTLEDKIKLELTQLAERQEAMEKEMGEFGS

[4] = target: CrIFT81_(152-C)/74_(150-C)/27/25_(1-136) complex (Chlamydomonas reinhardtii) (UniProt Q68RJ5); experiment: ITC
CrIFT81_(152-C)/74_(150-C)/27/25_(1-136) complex (Chlamydomonas reinhardtii), sequence (Q68RJ5 152-683, chain 1 of 4): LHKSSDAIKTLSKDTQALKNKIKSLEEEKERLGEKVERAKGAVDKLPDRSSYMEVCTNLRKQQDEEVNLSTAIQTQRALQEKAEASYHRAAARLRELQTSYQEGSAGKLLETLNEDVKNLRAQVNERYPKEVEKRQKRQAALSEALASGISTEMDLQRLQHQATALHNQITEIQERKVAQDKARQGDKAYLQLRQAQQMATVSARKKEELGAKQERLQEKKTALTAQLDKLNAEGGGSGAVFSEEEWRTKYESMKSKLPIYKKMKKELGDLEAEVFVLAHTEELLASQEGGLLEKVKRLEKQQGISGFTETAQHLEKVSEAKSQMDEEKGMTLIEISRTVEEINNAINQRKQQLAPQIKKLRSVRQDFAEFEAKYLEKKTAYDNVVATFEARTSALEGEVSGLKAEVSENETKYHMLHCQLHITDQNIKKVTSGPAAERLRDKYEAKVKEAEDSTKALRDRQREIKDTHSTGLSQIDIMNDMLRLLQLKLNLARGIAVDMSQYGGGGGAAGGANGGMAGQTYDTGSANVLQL
CrIFT81_(152-C)/74_(150-C)/27/25_(1-136) complex (Chlamydomonas reinhardtii), sequence (Q6RCE1 150-641, chain 2 of 4, further chain): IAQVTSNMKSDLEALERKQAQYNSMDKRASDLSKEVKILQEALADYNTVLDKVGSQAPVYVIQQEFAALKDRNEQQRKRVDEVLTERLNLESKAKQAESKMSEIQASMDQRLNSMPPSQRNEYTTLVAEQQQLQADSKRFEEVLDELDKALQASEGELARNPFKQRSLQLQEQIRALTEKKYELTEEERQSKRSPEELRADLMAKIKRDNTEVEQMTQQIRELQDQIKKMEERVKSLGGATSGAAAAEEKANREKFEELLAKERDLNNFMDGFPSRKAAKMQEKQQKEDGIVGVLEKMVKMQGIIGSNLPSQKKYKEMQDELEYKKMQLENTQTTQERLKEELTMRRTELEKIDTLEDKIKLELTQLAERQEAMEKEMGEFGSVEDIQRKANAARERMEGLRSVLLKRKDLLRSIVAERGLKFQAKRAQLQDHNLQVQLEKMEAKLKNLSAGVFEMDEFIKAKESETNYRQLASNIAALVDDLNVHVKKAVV
CrIFT81_(152-C)/74_(150-C)/27/25_(1-136) complex (Chlamydomonas reinhardtii), sequence (A8HN58 whole entry, chain 3 of 4, further chain): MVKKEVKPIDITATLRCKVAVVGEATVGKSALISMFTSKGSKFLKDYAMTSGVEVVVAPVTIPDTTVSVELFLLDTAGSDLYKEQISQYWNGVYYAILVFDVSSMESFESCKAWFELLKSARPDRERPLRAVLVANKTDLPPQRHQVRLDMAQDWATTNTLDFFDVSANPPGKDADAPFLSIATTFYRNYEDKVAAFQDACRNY
CrIFT81_(152-C)/74_(150-C)/27/25_(1-136) complex (Chlamydomonas reinhardtii), sequence (B8LIX8 1-136, chain 4 of 4, further chain): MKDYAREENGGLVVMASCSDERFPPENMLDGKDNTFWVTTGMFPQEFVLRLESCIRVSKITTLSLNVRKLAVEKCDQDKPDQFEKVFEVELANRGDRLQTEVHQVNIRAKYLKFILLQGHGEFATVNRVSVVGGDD

Q: How did the Kd [1] turn out when “Chlamydomonas reinhardtii CEP19 residues 1-208 (domain or fragment)” was run?
A: 12700 nM

Q: What about the Kd [2] of the same substance?
A: 280 nM

Q: “Chlamydomonas reinhardtii RabL2, wild type (natural protein)” was tested. Which GTPase rate of RabL2 with IFT81 (460-533)/74 (460-532) against RabL2 alone [3] did it give?
A: 5 fold

Q: “Chlamydomonas reinhardtii RabL2 Q83L (GTP-locked mutant) (natural protein)” was tested. Which Kd [4] did it give?
A: 590 nM
